One test deals with lipolysis in mice. Briefly: Stimulation of lipolysis in vivo, serum glycerol and FFA. To be noted: fasted mice, IP; CGH 300 μg/kg, CL 1 mg/kg. The protocol:
CGH, the β3-adrenoreceptor agonist CL 316,243 (CL), and saline vehicle were examined for stimulation of lipolysis in mice following an overnight fast. […] Lipolysis was assessed as the percent change in serum glycerol or FFA over the 2 hour period. The serum glycerol and FFA for the vehicle groups decreased by 7%±9% and 24%±15%, respectively. The serum glycerol for the CGH group increased by 57%±20%; p=0.0254, and the FFA levels increased 25%±5%; p=0.0188.
C57 BL/6 male mice, age 19 weeks, were grouped to normalize weight (n=4 for each treatment; average group weight=37.8 g±0.4 g). Mice were housed individually for 18 hours prior to treatment, at which time food was withdrawn, with free access to water given. At approximately 8 a.m., the subjects were anesthetized with halothane and blood samples taken by retro-orbital eye bleed. The blood was allowed to clot, and the serum was separated by centrifugation and frozen for later analysis. Test substances were administered by IP injection in a volume of 0.1 ml, and the animals replaced in their cages for 2 hours with free access to water. At 2 hours, the mice were sacrificed and blood drawn by cardiac puncture.
For measuring free fatty acids in serum, the method previously described for measuring free fatty acids in conditioned media was followed, with the following modifications. Wako reagents A and B were reconstituted to 2× the recommended concentration. 75 μl of Wako reagent A were added to 5 μl of oleic acid standard plus 5 μl of water. 75 μl of Wako reagent A were added to 5 μl of serum plus 5 μl of methanol (to mirror the oleic acid standard conditions). The 96-well plates were incubated at 37° C. for 10 minutes. 150 μl of Wako reagent B were added to each well. The 96-well plates were incubated at 37° C. for 10 minutes. The 96-well plates were allowed to sit at room temperature for 5 minutes. The 96-well plates were centrifuged in a Beckman Coulter Allegra 6R centrifuge at 3250×g for 5 minutes to remove air bubbles. The absorbance at 530 nm was measured on the Wallac Victor2 Multilabel counter.
For measuring glycerol in serum, the method previously described for measuring glycerol in conditioned media was followed, with the modifications described below.
Sigma reagent A was reconstituted to 0.5× the recommended concentration. 200 μl of Sigma reagent A were added to 10 μl of glycerol standard. 200 μl of Sigma reagent A were added to 5 μl of serum plus 5 μI of water. The 96-well plates were incubated for 15 minutes at room temperature. The 96-well plates were centrifuged in a Beckman Coulter Allegra 6R centrifuge at 3250×g for 5 minutes to remove air bubbles. The absorbance at 530 nm was measured on the Wallac Victor2 Multilabel counter.

A further test has as its system NCI-H295R. Briefly: CRE-luciferase reporter assay in NCI-H295R adrenal cortex cells. Type of test: cell-based, human. The source says:
Summary: A human adrenal cortex cell line, NCI-H295R, was used to study signal transduction of CGH. NCI-H295R was transduced with recombinant adenovirus containing a reporter construct, a firefly luciferase gene under the control of cAMP response element (CRE) enhancer sequences. This assay system detects cAMP-mediated gene induction downstream of activation of Gs-coupled GPCR's (G-protein coupled receptors). […] Typically, CGH elicited a maximal response of 15-40-fold luciferase induction above control media.
NCI-H295R cells were obtained from the ATCC (CRL-2128, Manassas, Va.) and cultured in growth medium as follows: 1:1 mixture of Dulbecco's modified Eagle's medium and Ham's F12 medium with L-glutamine (D-MEM/F-12; GIBCO, cat.#11320-033) containing 25 mM HEPES buffer (GIBCO, Invitrogen, Carlsbad, Calif., cat.#15630-080), 1 mM sodium pyruvate (GIBCO, cat.#11360-070), 1% ITS+1 media supplement (Sigma St. Louis, Mo. cat#I2521) and 2.5% Nu-Se I (BD Biosciences, Lexington, Ky. cat.#355100). Cells were cultured at 37° C. in a 5% CO2 humidified incubator. […]
Promega's Luciferase Assay System (Promega, Madison, Wis., cat. #E1500) was used to process the treated cells. […] Luciferase activity was measured on a microplate luminometer (PerkinElmer Life Sciences, Inc., model LB 96V2R) following automated injection of luciferase assay substrate.
On the technique in general: In a reporter assay the amount or activity of a reporter protein is the signal.

The subject of test [1] is Delayed Type Hypersensitivity (DTH) reaction. Briefly: Delayed Type Hypersensitivity (DTH), change in ear thickness. The test is classed as in vivo, mice.
Another test has as its system adrenal glands. Briefly: Intraperitoneal recombinant CGH for two weeks, adrenal weight. Type of test: in vivo, mice. To be noted: 0.25 mg/kg CGH i.p. daily, day 15, female C57BL/6. The source says:
Summary: Mice were exposed to CGH through infection with adenovirus particles expressing GPHA2 and GPHB5, leading to overexpression and secretion of CGH from the liver of these animals. […] The hypertrophy was apparent in the inner cortical layers, the zona fasciculata and the zona reticularis. Similarly, mice were exposed to CGH through intraperitoneal injection of recombinant CGH protein alone, recombinant CGH protein along with the glucocorticoid Dexamethasone (Dex), Dex alone, or PBS alone daily for two weeks.
Sixteen C57BL/6 female mice at 8 weeks of age were separated into four groups. The first group received daily injections of 0.25 mg/kg of recombinant CGH protein intraperitoneally. The second group received daily injections of PBS using the same procedure. The third group received daily injections of 0.25 mg/kg of CGH plus 0.05 mg/kg Dex and the final group received 0.5 mg/kg Dex, alone. Animals were sacrificed on day 15 and the adrenal glands were isolated and weighed. Example 5 describes the expression and purification of recombinant CGH protein used in this experiment.

The mark [2] stands for this setting: Expt 1, 0.2 mg/kg CGH i.p. at challenge (d7), 24 h.
[3] abbreviates: Expt 1, 2.0 mg/kg CGH i.p. at challenge (d7), 24 h.
The mark [4] stands for this setting: Expt 2, 0.2 mg/kg CGH i.p. at challenge (d7).
Where [5] appears, read: Expt 2, 2.0 mg/kg CGH i.p. at challenge (d7).
Setting [6] is: Expt 3, 0.2 mg/kg CGH i.p. at sensitization (d0-4).
Setting [7] is: Expt 3, 2.0 mg/kg CGH i.p. at sensitization (d0-4).

B1: CGH: heterodimeric protein hormone comprised of alpha subunit GPHA2 and beta subunit GPHB5, recombinantly produced in CHO cells (protein)
chain 1: QEAVIPGCHLHPFNVTVRSDRQGTCQGSHVAQACVGHCESSAFPSRYSVLVASGYRHNITSVSQCCTISGLKKVKVQLQCVGSRREELEIFTARACQCDMCRLSRY
chain 2: ASSGNLRTFVGCAVREFTFLAKKPGCRGLRITTDACWGRCETWEKPILEPPYIEAHHRVCTYNETKQVTVKLPNCAPGVDPFYTYPVAIRCDCGACSTATTECETI
As for B1, the “percent change (increase) in serum FFA over 2 hours” value with lipolysis in mice was 25%±5%. Also, the “percent change (increase) in serum glycerol over 2 hours” value with lipolysis in mice is on record as 57%±20%. Moreover, in the test on NCI-H295R (CRE-luciferase, 4 h), the “maximal response, luciferase induction above control media” value is 15-40 fold. In the test with NCI-H295R (dose-dependent), the “induction of luciferase activity compared with 10 μM forskolin” value is recorded as “equal to or higher than that induced by 10 μM forskolin”. Besides, the “Change in ear thickness, left ear (PBS)” value is given as 0.17 +/− 0.95 ×10^−3 inch in test [1] (setting [2]); 0.21 +/− 0.34 ×10^−3 inch in test [1] (setting [3]); 0.65 +/− 0.63 ×10^−3 inch in test [1] (setting [4]); 0.67 +/− 1.05 ×10^−3 inch in test [1] (setting [5]); 1.31 +/− 0.42 ×10^−3 inch in test [1] (setting [6]); 1.11 +/− 0.49 ×10^−3 inch in test [1] (setting [7]). In addition, the “Change in ear thickness, right ear (OVA)” value is 3.48 +/− 0.79 ×10^−3 inch in test [1] (setting [2]); 2.48 +/− 1.05 ×10^−3 inch in test [1] (setting [3]); 4.41 +/− 0.95 ×10^−3 inch in test [1] (setting [4]); 3.92 +/− 1.00 ×10^−3 inch in test [1] (setting [5]); 4.06 +/− 0.73 ×10^−3 inch in test [1] (setting [6]); 4.57 +/− 1.58 ×10^−3 inch in test [1] (setting [7]). For the same molecule, the “Average adrenal weight/100 g body weight” value in the test on adrenal glands is 22.26 +/− 0.99.

The record behind these values is patent publication US20070014736A1, “Methods of delivering corticotroph-derived glycoprotein hormone” (priority 2005, published 2007).
